In series [1] the target is T1, CTLA4.B3.B6 I-OnuI HE variant (Ophiostoma novo-ulmi).
T1 chain: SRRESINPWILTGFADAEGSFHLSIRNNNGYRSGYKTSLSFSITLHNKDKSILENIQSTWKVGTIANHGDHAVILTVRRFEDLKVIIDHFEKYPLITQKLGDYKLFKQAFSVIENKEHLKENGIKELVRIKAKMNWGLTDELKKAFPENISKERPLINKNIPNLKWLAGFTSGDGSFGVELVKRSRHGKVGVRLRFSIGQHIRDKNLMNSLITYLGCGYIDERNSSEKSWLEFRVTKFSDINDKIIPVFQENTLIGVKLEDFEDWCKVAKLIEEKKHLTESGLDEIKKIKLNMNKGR
The series is described as follows: cell_activity; chromosomal iRFP reporter in HEK 293T. Here is the method:
(§1) The activity of reprogrammed I-OnuI HEs that target exon 2 of the CTLA4 gene was measured using a chromosomally integrated fluorescent reporter system (Certo et. al., 2011). Fully reprogrammed I-OnuI HEs that bind and cleave the CTLA4 target sequence (SEQ ID NO: 13) were cloned into mammalian expression plasmids and then individually transfected into a HEK 293T […] cell line that contained the CTLA4 target sequence upstream of an out-of-frame gene encoding the fluorescent iRFP protein. Cleavage of the embedded target site by the HE and the accumulation of indels following DNA repair via the non-homologous end joining (NHEJ) pathway results in approximately one out of three repaired loci placing the fluorescent reporter gene back “in-frame”. The percentage of iRFP fluorescing HEK 293T cells is therefore used a readout of endonuclease activity at the chromosomally embedded target sequence. […] FIG. 3 (left panel).
(§2) A secondary I-OnuI variant library was generated by performing random mutagenesis on the CTLA4.B3 HE variant (SEQ ID NO: 6). Display-based flow sorting was performed under more stringent cleavage conditions to isolate variants with improved catalytic efficiency. […] FIG. 3 (middle panel). […] FIG. 3 (right panel).

In series [2] the target is T2, CTLA4.B3.B6.D5 I-OnuI HE variant (Ophiostoma novo-ulmi).
T2 chain: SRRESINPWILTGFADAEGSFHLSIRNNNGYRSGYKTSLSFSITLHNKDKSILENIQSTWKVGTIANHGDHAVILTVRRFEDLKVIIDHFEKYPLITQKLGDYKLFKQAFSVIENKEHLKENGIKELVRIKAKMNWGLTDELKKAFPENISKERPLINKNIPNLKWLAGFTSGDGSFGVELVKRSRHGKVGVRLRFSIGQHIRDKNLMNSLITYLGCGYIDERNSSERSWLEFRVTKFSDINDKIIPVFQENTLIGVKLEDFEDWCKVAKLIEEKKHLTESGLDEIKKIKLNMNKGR
The description is as above. On the procedure: as §1, §2

Series [3] addresses T2, CTLA4.B3.B6.D5 I-OnuI HE variant. The series is described as follows: flow; sub-nanomolar affinity; yeast surface affinity titration, value only in figure. The settings on record: tags: yeast surface display.

B1: CTLA4 exon 2 HE target site (dsDNA)
DNA 1: TGGAGATGCATACTCACACACA
DNA 2: TGTGTGTGAGTATGCATCTCCA
On to B1, for which the activity in series [1] was around 3 fold vs CTLA4.B3; in series [2] it was around 2 fold vs CTLA4.B3.B6. This molecule also had a Kd in series [3] below 1 nM.

The term Kd denotes a measure of binding affinity in units of concentration.

For the origin of these results see patent US20210002621, “CTLA4 HOMING ENDONUCLEASE VARIANTS, COMPOSITIONS, AND METHODS OF USE” (bluebird bio, Inc., published 2021).
